T1: human LAG-3 protein (Lymphocyte activation gene-3) on the cell surface (human, UniProt P18627 23-525)
T1 construct: also called CD223; CHO LAG-3+
T1 sequence: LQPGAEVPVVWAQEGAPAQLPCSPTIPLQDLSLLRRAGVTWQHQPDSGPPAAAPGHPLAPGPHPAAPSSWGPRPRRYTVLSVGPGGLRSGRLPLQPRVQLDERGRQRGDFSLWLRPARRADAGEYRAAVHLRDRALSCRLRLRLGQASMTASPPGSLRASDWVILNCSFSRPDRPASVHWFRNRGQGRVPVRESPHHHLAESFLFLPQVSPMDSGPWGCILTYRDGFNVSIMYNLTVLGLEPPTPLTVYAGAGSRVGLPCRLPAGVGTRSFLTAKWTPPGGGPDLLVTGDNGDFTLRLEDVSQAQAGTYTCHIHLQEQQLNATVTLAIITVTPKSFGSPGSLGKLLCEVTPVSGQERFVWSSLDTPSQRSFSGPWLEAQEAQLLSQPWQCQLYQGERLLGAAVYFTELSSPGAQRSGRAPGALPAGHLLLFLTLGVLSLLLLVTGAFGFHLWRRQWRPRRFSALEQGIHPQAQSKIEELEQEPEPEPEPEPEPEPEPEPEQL

T2: IMP321 (recombinant soluble human LAG-3Ig fusion protein) (human, UniProt P18627 23-450)
T2 sequence (looked up): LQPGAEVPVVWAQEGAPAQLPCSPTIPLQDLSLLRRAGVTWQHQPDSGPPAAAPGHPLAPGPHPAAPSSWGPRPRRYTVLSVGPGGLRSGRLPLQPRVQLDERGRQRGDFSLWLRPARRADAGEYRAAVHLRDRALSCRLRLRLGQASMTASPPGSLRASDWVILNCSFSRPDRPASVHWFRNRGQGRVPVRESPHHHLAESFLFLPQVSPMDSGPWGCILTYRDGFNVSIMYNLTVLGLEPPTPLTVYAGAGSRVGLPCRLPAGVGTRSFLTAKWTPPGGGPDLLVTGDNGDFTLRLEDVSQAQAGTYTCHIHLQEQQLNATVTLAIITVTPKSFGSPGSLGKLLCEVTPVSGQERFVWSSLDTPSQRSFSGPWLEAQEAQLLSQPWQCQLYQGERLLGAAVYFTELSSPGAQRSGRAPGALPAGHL

B1: mouse monoclonal anti-LAG-3 antibody 13E2 (antibody, V domains shown)
VH: QVTLKESGPGILQPSQTLSLTCSFSGFSLSTSGMGLGWIRQPSGKGLEWLTHIWWDDIKRYNPDLRSRLTISKDTSSSQIFLKIASVDTADTATYYCARIVEGSYSSSYFDVWGAGTTVTVSS
VL: DIVMTQPHKFMSTSVEDRVTITCKASQDVIFDVAWYQQKPGQSPKLLIYSASSRVSGVPDRFTGSGSGTDFTFTISSVQAEDLAVYYCQQHYSTPYTFGGGTTLEIK
notes: Whole mouse monoclonal antibody from a hybridoma; mIgG1 was used as its isotype control
B2: mouse monoclonal anti-LAG-3 antibody 34F4 (antibody, V domains shown)
VH: QVTLKESGPGILQPSQTLSLTCSFSGFSLNTSGMGVGWIRQPSGKGLEWLTHIWWDDVKRYNPALKSRLTISKDTSSSQVFLKIASVDTADTATYYCARIEGDTYYDYYFDYWGQGVTLTVSS
VL: DIVMTQSHKLMSTSVGDGLSITCKASQDVSIAVVWYQQKPGQSPKLLIYSASFRYTGVPDRFTGSGSGTDFTFTISSVQAEDLAVYYCQQHYSIPWTFGGGTKLEIK
notes: as for B1

Key:
[1] = target: human LAG-3 protein (Lymphocyte activation gene-3) on the cell surface (human) (UniProt P18627); assay: flow cytometry on CHO-LAG-3+ cells; antibody 20 ng/ml
[2] = target: human LAG-3 protein (Lymphocyte activation gene-3) on the cell surface (human) (UniProt P18627); assay: flow cytometry on CHO-LAG-3+ cells; antibody 192 ng/ml
[3] = target: human LAG-3 protein (Lymphocyte activation gene-3) on the cell surface (human) (UniProt P18627); assay: flow cytometry on CHO-LAG-3+ cells; antibody 0 ng/ml (no-antibody background)
[4] = target: human LAG-3 protein (Lymphocyte activation gene-3) on the cell surface (human) (UniProt P18627); assay: flow cytometry on CHO-LAG-3+ cells; antibody 6 ng/ml
[5] = target: human LAG-3 protein (Lymphocyte activation gene-3) on the cell surface (human) (UniProt P18627); assay: flow cytometry on CHO-LAG-3+ cells; antibody 605 ng/ml
[6] = target: human LAG-3 protein (Lymphocyte activation gene-3) on the cell surface (human) (UniProt P18627); assay: flow cytometry on CHO-LAG-3+ cells; antibody 1905 ng/ml
[7] = target: human LAG-3 protein (Lymphocyte activation gene-3) on the cell surface (human) (UniProt P18627); assay: flow cytometry on CHO-LAG-3+ cells; antibody 61 ng/ml
[8] = target: human LAG-3 protein (Lymphocyte activation gene-3) on the cell surface (human) (UniProt P18627); assay: flow cytometry on CHO-LAG-3+ cells; antibody 6000 ng/ml
[9] = target: T1, human LAG-3 protein (Lymphocyte …); assay: flow cytometry on CD4+ cells of SEB-stimulated PBMCs, three donors; reference 17B4
Method: (§1) LAG-3⁺-transfected CHO cells, or SEB-stimulated PBMCs from a healthy donor were incubated with anti-LAG-3 monoclonal antibody, or an isotype control (mIgG1) for 30 minutes in PBS, BSA 0.5%, Azide 0.1% at 4° C. […] The secondary antibody was washed away, and the CHO cells were directly analyzed by flow cytometry. The PBMCs were phenotyped using CD4-PE-Cy7 and CD8-APC-Cy7.

[10] = target: T1, human LAG-3 protein (Lymphocyte …); assay: flow cytometry on CD8+ cells of SEB-stimulated PBMCs (Donor 1), from Table 13
Method: as §1

[11] = target: T1, human LAG-3 protein (Lymphocyte …); assay: flow cytometry on CD4+ cells of SEB-stimulated PBMCs (Donor 1), from Table 13
Method: as §1

[12] = target: T1, human LAG-3 protein (Lymphocyte …); assay: flow cytometry on CD8+ cells of SEB-stimulated PBMCs, mean of three donors
Method: as §1

[13] = target: T1, human LAG-3 protein (Lymphocyte …); assay: flow cytometry on LAG-3-expressing CHO cells, four independent experiments; reference 17B4
Method: as §1

[14] = target: T1, human LAG-3 protein (Lymphocyte …); assay: flow cytometry on CD4+ cells of SEB-stimulated PBMCs, mean of three donors
Method: as §1

[15] = target: T1, human LAG-3 protein (Lymphocyte …); assay: flow cytometry on CD8+ cells of SEB-stimulated PBMCs, three donors; reference 17B4
Method: as §1

[16] = target: T2, IMP321 (recombinant soluble human …); assay: cell-based or functional assay

Molecule | MFI FITC [1] [MFI] | MFI FITC [2] [MFI] | MFI FITC [3] [MFI] | MFI FITC [4] [MFI] | MFI FITC [5] [MFI] | MFI FITC [6] [MFI] | MFI FITC [7] [MFI] | MFI FITC [8] [MFI] | ratio of mean EC50 against 17B4 [9] [times] | EC50 [10] [nM] | EC50 [11] [nM] | EC50 [12] [nM] | ratio of mean EC50 against 17B4 [13] [times] | EC50 [14] [nM] | ratio of mean EC50 against 17B4 [15] [times] | percentage of inhibition of CD8+ T cell proliferation; Donor #1, 34F4 1000 ng/ml neutralised with a 10-fold excess of IMP321 [16] [%] | percentage of inhibition of CD8+ T cell proliferation; Donor #2, 34F4 1000 ng/ml neutralised with a 10-fold excess of IMP321 [16] [%]
human IgG4 (isotype-matched negative control) (antibody) | 49 | 59 | 35 | 37 | 46 | 77 | 69 | 71 | – | – | – | – | – | – | – | – | –
B1 | – | – | – | – | – | – | – | – | 3.8 | 0.3 | 0.1 | 0.4 | 2.7 | 0.2 | 2.5 | – | –
B2 | – | – | – | – | – | – | – | – | 3.8 | – | 0.1 | 0.5 | 1.6 | 0.2 | 2.5 | 0 | 41
